The target in test [1] is T1, hPCSK9(E366K) (human, UniProt Q8NBP7 31-692).
T1 construct: mmh-tagged variant hPCSK9
Put plainly: SPR, mAb captured, 25C. (In SPR one partner is held on a chip, and binding of the other changes the refractive index at the surface.)
Excerpt: (§1) Each selected antibody was captured on a F(ab′)2 anti-hIgG surface created through direct chemical coupling to a BIACORE™ chip to form a captured antibody surface.

Test [2] addresses T2, Human PCSK9-myc-myc-his (human, UniProt Q8NBP7 31-692).
T2 construct: also called hPCSK9-mmh; hPCSK9
Put plainly: SPR, mAb captured, 25C.
Description: Each selected antibody was captured at a flowrate of 2 μl/min for 6 min on a goat anti-human IgG polyclonal antibody surface created through direct chemical coupling to a BIACORE™ chip to form a captured antibody surface.

Test [3] concerns the target T3, hPCSK9(D238R) (human, UniProt Q8NBP7 31-692).
T3 construct: mmh-tagged variant hPCSK9
Put plainly: SPR, mAb captured, 25C.
Excerpt: as §1

The target of test [4] is T4, his-tagged Syrian golden hamster (Mesocricetus auratus) PCSK9 (Syrian golden hamster (Mesocricetus …)).
T4 construct: also called maPCSK9-h; maPCSK9
T4 chain: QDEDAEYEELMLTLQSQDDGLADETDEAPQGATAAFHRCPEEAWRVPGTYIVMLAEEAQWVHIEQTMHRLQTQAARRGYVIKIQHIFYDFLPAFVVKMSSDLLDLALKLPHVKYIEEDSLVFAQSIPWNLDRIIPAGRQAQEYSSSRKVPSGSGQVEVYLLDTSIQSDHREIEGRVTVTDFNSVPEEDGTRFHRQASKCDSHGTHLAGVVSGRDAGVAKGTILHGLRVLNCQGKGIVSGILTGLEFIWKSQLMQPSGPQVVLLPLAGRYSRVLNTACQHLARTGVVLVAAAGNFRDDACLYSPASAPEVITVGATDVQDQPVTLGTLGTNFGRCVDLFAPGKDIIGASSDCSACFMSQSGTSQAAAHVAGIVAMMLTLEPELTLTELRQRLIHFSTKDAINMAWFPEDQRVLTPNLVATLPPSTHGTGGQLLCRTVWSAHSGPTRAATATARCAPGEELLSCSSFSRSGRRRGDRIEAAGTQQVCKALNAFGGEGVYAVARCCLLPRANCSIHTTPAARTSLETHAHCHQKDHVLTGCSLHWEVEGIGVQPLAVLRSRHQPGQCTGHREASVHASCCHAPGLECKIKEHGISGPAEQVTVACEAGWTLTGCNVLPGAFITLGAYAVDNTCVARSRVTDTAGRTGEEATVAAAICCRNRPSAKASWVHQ
Put plainly: SPR, mAb amine-coupled, 25C, pH 5.5.
Excerpt: (§2) Briefly, mAbs were immobilized onto BIACORE™ CM5 sensor chips via amine coupling.

The target in test [5] is T5, mouse PCSK9, myc-myc-his tagged (mouse, UniProt Q80W65 35-694).
T5 construct: also called mPCSK9-mmh; mPCSK9
Put plainly: SPR, mAb amine-coupled, 25C, pH 5.5.
Target sequence in this assay (Q80W65 35-694 limits assumed): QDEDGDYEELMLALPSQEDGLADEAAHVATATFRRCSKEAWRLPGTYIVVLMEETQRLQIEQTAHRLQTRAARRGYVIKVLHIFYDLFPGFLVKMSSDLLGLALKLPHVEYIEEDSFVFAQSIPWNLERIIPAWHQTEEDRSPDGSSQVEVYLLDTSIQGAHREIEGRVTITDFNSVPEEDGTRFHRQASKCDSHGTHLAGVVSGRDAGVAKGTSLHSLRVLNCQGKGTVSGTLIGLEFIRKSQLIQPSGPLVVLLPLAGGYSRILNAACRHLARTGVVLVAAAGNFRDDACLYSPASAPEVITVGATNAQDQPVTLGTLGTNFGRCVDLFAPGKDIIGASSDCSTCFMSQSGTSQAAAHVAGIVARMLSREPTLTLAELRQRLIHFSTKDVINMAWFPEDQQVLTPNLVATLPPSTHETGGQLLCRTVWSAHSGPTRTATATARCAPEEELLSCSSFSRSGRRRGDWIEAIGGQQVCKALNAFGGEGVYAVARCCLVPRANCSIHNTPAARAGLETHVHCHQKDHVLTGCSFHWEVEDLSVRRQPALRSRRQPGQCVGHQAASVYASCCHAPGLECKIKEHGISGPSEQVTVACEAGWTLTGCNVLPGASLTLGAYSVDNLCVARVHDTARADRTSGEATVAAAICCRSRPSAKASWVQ
Excerpt: as §2

Test [6] deals with T6, rat (Rattus norvegicus) PCSK9, myc-myc-his tagged (rat (Rattus norvegicus), UniProt P59996 31-691).
T6 construct: also called rPCSK9-mmh; rPCSK9
T6 sequence (P59996 31-691 limits assumed): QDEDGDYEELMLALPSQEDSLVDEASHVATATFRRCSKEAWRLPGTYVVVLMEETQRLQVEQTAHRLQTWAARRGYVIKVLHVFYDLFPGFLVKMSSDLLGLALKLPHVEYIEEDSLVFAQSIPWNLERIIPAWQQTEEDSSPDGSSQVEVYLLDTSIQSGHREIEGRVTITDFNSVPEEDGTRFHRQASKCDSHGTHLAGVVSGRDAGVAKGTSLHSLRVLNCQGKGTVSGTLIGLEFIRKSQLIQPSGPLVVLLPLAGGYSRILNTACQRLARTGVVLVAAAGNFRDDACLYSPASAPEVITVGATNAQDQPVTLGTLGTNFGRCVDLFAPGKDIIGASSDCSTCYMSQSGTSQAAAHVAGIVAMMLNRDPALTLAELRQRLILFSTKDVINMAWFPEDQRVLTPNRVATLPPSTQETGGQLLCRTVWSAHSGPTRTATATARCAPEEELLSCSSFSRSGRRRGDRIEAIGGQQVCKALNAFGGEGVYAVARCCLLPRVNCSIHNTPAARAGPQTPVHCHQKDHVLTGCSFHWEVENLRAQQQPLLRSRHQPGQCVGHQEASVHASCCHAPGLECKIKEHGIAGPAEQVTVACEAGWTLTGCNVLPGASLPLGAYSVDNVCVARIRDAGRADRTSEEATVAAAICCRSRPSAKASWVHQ
In words: SPR, mAb amine-coupled, 25C, pH 5.5.
Excerpt: as §2

The target of test [7] is T4, his-tagged Syrian golden hamster …. In words: SPR, mAb amine-coupled, 25C, pH 7.4.
Excerpt: as §2
In test [8] the target is T6, rat (Rattus norvegicus) PCSK9, …. Put plainly: SPR, mAb amine-coupled, 25C, pH 7.4.
Excerpt: as §2
Test [9] concerns the target T7, Chimeric protein #3 (mPro-mCat-hC-term-mmh) (mouse; human).
T7 chain: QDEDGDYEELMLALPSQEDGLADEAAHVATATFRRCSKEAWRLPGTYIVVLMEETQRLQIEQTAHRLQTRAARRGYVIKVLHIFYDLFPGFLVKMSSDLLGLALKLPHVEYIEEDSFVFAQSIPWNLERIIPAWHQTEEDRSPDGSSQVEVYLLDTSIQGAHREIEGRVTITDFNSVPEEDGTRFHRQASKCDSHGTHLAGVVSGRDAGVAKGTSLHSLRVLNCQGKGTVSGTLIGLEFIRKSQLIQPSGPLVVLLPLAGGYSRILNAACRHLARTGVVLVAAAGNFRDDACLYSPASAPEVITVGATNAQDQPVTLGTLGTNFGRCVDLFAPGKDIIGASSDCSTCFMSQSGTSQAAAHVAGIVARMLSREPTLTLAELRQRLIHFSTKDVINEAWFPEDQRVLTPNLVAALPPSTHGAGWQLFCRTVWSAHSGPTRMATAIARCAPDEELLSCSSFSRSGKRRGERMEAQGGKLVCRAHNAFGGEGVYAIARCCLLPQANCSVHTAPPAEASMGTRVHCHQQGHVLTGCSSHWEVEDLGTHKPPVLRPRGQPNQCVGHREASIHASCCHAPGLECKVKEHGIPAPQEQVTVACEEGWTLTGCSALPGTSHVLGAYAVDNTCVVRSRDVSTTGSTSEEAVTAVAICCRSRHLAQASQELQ
Put plainly: SPR, mAb captured on anti-hFc, 100 nM antigen.
Description: Changes in RU due to the binding of each protein to the mAb surface was determined.

The target in test [10] is T4, his-tagged Syrian golden hamster …. Put plainly: SPR, mAb amine-coupled, 37C, pH 7.4.
Excerpt: as §2
The target in test [11] is T5, mouse PCSK9, myc-myc-his tagged. Put plainly: SPR, mAb amine-coupled, 37C, pH 7.4.
Excerpt: as §2
Test [12] deals with T6, rat (Rattus norvegicus) PCSK9, …. In words: SPR, mAb amine-coupled, 37C, pH 7.4.
Excerpt: as §2

Data on two molecules can be found in US20130064834A1 (published 2013).

Some results are limits rather than exact numbers.

B1: H1M300N (antibody, V domains shown)
VH: EMQLVESGGGLVQPGGSLRLSCAASGFTFSSHWMKWVRQAPGKGLEWVANINQDGSEKYYVDSVKGRFTISRDNAKNSLFLQMNSLRAEDTAVYYCARDIVLMVYDMDYYYYGMDVWGQGTTVTVSS
VL: not shown
notes: Fully human version made in CHO cells
Take B1: the “fold reduction of binding against wildtype hPCSK9” value in [1] is roughly 50 fold.

B2: H1H316P (antibody, V domains shown)
VH: EVQLVESGGGLVQPGGSLRLSCAASGFTFNNYAMNWVRQAPGKGLDWVSTISGSGGTTNYADSVKGRFIISRDSSKHTLYLQMNSLRAEDTAVYYCAKDSNWGNFDLWGRGTLVTVSS
VL: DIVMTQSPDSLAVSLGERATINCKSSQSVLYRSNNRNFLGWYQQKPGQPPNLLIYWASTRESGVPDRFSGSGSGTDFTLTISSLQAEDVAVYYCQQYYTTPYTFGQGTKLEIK
notes: Fully human mAb made in CHO cells; also called mAb316P
B2: the Kd (commonly the equilibrium constant for the complex coming apart) in test [2] amounted to 0.377 nM; in test [4] it was 0.087 nM; in test [5], 0.063 nM; in test [6], 0.349 nM; in [7], 8.35 nM; in test [8], 24.1 nM. In addition, the figures for the Kd in test [10], in test [11] and in test [12] were 21.7 nM, 12.2 nM and 55.1 nM, respectively. The T1/2 in [2] came out at 42 min; in test [4], 8 min; in test [5], 11 min; in test [6] it was 5 min; in test [7], 8 min; in [8] it was 2 min. The results for the T1/2 in test [10], in [11] and in test [12] were 2 min, 3 min and 2 min, respectively. Besides, the “fold reduction of binding affinity against wildtype hPCSK9” value in test [3] was greater than 400 fold. Further, the “fold shortening of T1/2 against wildtype hPCSK9” value in test [3] is roughly 30 fold. In addition, in test [9], the “change in RU” value came out at 467 RU.
